Measured values taken from patent US20040260068A1 (published 2004).
Values joined by “and” are separate entries in the source; they are usually repeats but may differ in a detail not shown here. Equal entries are not always repeated.

Experiments:
mouse IL-12 [1] = biological target: T1, mouse IL-12 (mouse, UniProt P43431 23-215; P43432 23-335); assay: competition ELISA on coated mouse IL-12; competitor of biotinylated humanized B1
T1 sequence (looked up) 1: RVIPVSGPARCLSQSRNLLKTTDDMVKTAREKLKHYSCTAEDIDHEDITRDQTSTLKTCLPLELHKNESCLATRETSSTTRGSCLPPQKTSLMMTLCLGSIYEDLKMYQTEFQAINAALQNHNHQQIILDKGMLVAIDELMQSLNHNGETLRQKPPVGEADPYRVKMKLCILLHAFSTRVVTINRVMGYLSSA
T1 sequence (looked up) 2: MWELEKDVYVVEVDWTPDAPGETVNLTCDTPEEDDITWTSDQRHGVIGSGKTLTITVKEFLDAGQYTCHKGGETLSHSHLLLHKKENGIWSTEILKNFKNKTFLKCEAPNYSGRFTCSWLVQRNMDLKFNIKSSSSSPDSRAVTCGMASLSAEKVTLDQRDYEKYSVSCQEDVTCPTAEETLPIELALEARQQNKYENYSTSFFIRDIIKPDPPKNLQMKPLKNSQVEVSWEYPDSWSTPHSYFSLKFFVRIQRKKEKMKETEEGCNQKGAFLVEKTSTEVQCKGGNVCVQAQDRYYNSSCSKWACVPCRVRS
Description: (§1) MaxiSorp plates were coated with 100 μl of 0.1 μg/ml human or mouse IL-12 (R&D) and blocked with Superblock blocking buffer. […] As a background control, 100 μl of ELISA Buffer was used. ELISA plates were incubated at room temperature for 2 hr. After washing the wells with Washing Buffer (PBS containing 0.1 % Tween 20), 100 μl of 1 μg/ml HRP-conjugated streptavidin (Pierce) in ELISA buffer was added to each well. ELISA plates were incubated at room temperature for 30 min and washed with Washing Buffer. For color development, 100 μI/well of ABTS substrate was added. Color development was stopped by adding 100 μl/well of 2% oxalic acid. Absorbance was read at 415 nm.

concanavalin A = biological target: T2, concanavalin A (UniProt P02866 30-281); assay: ELISA on coated protein
T2 construct: Control antigen
Description: (§2) For binding to various proteins, ELISA plates were coated with chicken lysozyme (Sigma), human globin (Sigma), bovine albumin (Sigma), and concanavalin A (Pharmacia) as well as human and mouse IL-12 (R&D) at 0.1 μg/ml in 0.2 M sodium carbonate buffer (pH 9.4) and blocked with SuperBlock buffer (Pierce).

chicken lysozyme = biological target: T3, chicken lysozyme (chicken, UniProt P00698 19-147); assay: ELISA on coated protein
T3 construct: Control antigen; also called hen egg lysozyme
Description: as §2

bovine albumin = biological target: T4, bovine albumin (bovine, UniProt P02769 25-607); assay: ELISA on coated protein
T4 construct: Control antigen
Description: as §2

human IL-12 [2] = biological target: T5, human IL-12 (human, UniProt P29459 23-219; P29460 23-328); assay: competition ELISA on coated human IL-12; competitor of biotinylated humanized B1
T5 construct: also called human IL-12 p70 heterodimer; IL-12 p75
T5 sequence (looked up) 1: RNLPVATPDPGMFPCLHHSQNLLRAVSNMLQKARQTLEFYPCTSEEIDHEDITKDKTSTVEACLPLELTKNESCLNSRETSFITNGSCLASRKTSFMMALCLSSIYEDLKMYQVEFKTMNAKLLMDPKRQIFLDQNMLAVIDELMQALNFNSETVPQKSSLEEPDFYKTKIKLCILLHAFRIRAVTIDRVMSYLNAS
T5 sequence (looked up) 2: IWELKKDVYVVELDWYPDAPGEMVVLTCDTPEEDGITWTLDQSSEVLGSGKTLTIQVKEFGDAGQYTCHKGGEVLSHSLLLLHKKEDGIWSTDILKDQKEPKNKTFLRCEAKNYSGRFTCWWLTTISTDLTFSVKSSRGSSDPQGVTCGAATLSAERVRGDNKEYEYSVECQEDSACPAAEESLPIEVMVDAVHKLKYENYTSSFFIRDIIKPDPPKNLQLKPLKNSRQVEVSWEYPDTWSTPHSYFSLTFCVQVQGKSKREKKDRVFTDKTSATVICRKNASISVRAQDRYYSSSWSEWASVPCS
Description: as §1

human IL-12 [3] = biological target: T5, human IL-12; assay: competition ELISA on coated human IL-12; competitor of biotinylated ChDD2
Description: (§3) ELISA plates were incubated at room temperature for 2 hr. After washing the wells with Washing Buffer, 0.5 μg/ml HRP-conjugated streptavidin (Pierce) was added to each well. Color development was performed with TMB substrate (Kirkegaard & Perry Laboratories).

mouse IL-12 [4] = biological target: T1, mouse IL-12; assay: competition ELISA on coated mouse IL-12; competitor of biotinylated ChDD2
Description: as §3, with “MaxiSorp plates (Nalge Nunc, Rochester N.Y.) were coated with 0.1 μg/ml human or mouse IL-12. […] ELISA” for “ELISA”

human IL-12 [5] = biological target: T5, human IL-12; assay: competition ELISA on coated human IL-12
Description: as §3

mouse IL-12 [6] = biological target: T1, mouse IL-12; assay: competition ELISA on coated mouse IL-12
Description: as §1

mouse IL-12 [7] = biological target: T1, mouse IL-12; assay: competitive binding assay (competition ELISA)
Description: as §1

T4 sequence (P02769 25-607 limits assumed): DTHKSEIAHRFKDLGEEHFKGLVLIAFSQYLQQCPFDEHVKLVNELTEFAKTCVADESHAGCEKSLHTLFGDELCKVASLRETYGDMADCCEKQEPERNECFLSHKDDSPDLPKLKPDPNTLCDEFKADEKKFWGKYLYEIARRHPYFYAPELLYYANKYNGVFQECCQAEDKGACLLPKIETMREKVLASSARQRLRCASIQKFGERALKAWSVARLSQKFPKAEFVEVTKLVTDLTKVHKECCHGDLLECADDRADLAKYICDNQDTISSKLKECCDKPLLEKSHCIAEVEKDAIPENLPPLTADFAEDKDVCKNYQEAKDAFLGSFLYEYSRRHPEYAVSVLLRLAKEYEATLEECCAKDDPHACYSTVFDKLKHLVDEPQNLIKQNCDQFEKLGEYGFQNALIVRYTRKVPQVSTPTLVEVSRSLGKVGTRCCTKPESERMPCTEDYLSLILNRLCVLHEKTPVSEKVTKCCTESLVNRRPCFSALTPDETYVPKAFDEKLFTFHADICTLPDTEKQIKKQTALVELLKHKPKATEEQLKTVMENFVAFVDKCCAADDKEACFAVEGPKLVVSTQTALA
T3 sequence (P00698 19-147): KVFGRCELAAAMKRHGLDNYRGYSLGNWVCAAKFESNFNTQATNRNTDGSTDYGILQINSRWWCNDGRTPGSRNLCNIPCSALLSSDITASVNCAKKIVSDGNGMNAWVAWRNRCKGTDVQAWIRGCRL

B1: chimeric B1 IgG1/λ antibody (chicken-human chimeric anti-IL-12 antibody B1) (antibody, V domains shown)
VH: AVTLDESGGGLQTPGGALSLVCKASGFTFSSYSMLWVRQAPGKGLEYVAEITNTGRTRRYGAAVKGRATISRDNGQSTVRLQLNNLRAEDTGTYYCARSSVYSCSYGWCAGNINAWGHGTEVIVSS
VL: ALTQPASVSANLGGTVKITCSGGYSGYYGWYQQKSPGSAPVTVIYDNTRRPSDIPSRFSGSKSGSTATLTITGVQADDEAVYFCGTWDSSRVGIFGAGTTLTVL
notes: made in Sp2/0; also called ChB1
- IC50 (mouse IL-12 [1]): 13 µg/mL
- binding result (concanavalin A): no binding (tested: 0.01 µg/ml antibody)
- binding result (chicken lysozyme): no binding (tested: 0.01 µg/ml antibody)
- binding result (bovine albumin): no binding (tested: 0.01 µg/ml antibody)
- IC50 (human IL-12 [2]): 8.3 µg/mL

B2: chicken-human chimeric anti-IL-12 antibody DD2 (antibody, V domains shown)
VH: AVTLDESGGGLQTPGGGLSLVCKASGFDFSNYQLQWVRQAPGKGLEWVGGIGSSGSSTYYGAAVKGRATISRDNGQSTVRLQLNNLRAEDTGTYYCTRGVSPYSCWYAGRTSYTCHAYTAGSIDAWGHGTEVIVSS
VL: ALTQPASVSANPGETVKITCPGGGIYAGRYYGYGWFQQKSPGSAPVTVIYSNDKRPSDIPSRFSGSASGSTATLTITGVQADDEAVYFCGSHDSNVGVFGAGTTLTVL
notes: made in Sp2/0; also called ChDD2; chimeric DD2
- IC50 (human IL-12 [3]): 4 µg/mL
- IC50 (mouse IL-12 [4]): 2.4 µg/mL

B3: humanized DD2 IgG1/λ monoclonal antibody (antibody, V domains shown)
VH: EVQLVESGGGLVQPGGSLRLSCAASGFDFSNYQLQWVRQAPGKGLEWVGGIGSSGSSTYYGAAVKGRATISRDNAKNSVYLQMNSLRAEDTAVYYCTRGVSPYSCWYAGRTSYTCHAYTAGSIDAWGQGTLVTVSS
VL: SSELTQDPAVSVALGQTVRITCPGGGIYAGRYYGYGWFQQKPGQAPVTVIYSNDKRPSDIPSRFSGSASGSTASLTITGAQAEDEADYYCGSHDSNVGVFGGGTKLTVL
notes: also called HuDD2; wild-type HuDD2
- IC50 (human IL-12 [3]): 4.2 µg/mL and 3.5 µg/mL
- IC50 (mouse IL-12 [4]): 2.4 µg/mL

B4: HuDD2 VH A67F mutant (antibody, IgG1, name in Kabat numbering, V domains shown)
VH: EVQLVESGGGLVQPGGSLRLSCAASGFDFSNYQLQWVRQAPGKGLEWVGGIGSSGSSTYYGAAVKGRFTISRDNAKNSVYLQMNSLRAEDTAVYYCTRGVSPYSCWYAGRTSYTCHAYTAGSIDAWGQGTLVTVSS
VL: SSELTQDPAVSVALGQTVRITCPGGGIYAGRYYGYGWFQQKPGQAPVTVIYSNDKRPSDIPSRFSGSASGSTASLTITGAQAEDEADYYCGSHDSNVGVFGGGTKLTVL
notes: IgG1/λ as HuDD2
- IC50 (human IL-12 [3]): 2.1 µg/mL

B5: HuDD2 Vλ A66S mutant (antibody, IgG1, V domains shown)
VH: EVQLVESGGGLVQPGGSLRLSCAASGFDFSNYQLQWVRQAPGKGLEWVGGIGSSGSSTYYGAAVKGRATISRDNAKNSVYLQMNSLRAEDTAVYYCTRGVSPYSCWYAGRTSYTCHAYTAGSIDAWGQGTLVTVSS
VL: SSELTQDPAVSVALGQTVRITCPGGGIYAGRYYGYGWFQQKPGQAPVTVIYSNDKRPSDIPSRFSGSSSGSTASLTITGAQAEDEADYYCGSHDSNVGVFGGGTKLTVL
notes: IgG1/λ as HuDD2; Kabat numbering
- IC50 (human IL-12 [3]): 3.4 µg/mL

B6: HuDD2 VH V78L mutant (antibody, IgG1, name in Kabat numbering, V domains shown)
VH: EVQLVESGGGLVQPGGSLRLSCAASGFDFSNYQLQWVRQAPGKGLEWVGGIGSSGSSTYYGAAVKGRATISRDNAKNSLYLQMNSLRAEDTAVYYCTRGVSPYSCWYAGRTSYTCHAYTAGSIDAWGQGTLVTVSS
VL: SSELTQDPAVSVALGQTVRITCPGGGIYAGRYYGYGWFQQKPGQAPVTVIYSNDKRPSDIPSRFSGSASGSTASLTITGAQAEDEADYYCGSHDSNVGVFGGGTKLTVL
notes: IgG1/λ as HuDD2; H78 (Kabat) is the position named as the one tested; also called V79L
- fold reduction of binding affinity against wild-type HuDD2 (human IL-12 [5]): 2 fold
- IC50 (human IL-12 [3]): 7 µg/mL

B7: HuDD2 Vλ S69N mutant (antibody, IgG1, V domains shown)
VH: EVQLVESGGGLVQPGGSLRLSCAASGFDFSNYQLQWVRQAPGKGLEWVGGIGSSGSSTYYGAAVKGRATISRDNAKNSVYLQMNSLRAEDTAVYYCTRGVSPYSCWYAGRTSYTCHAYTAGSIDAWGQGTLVTVSS
VL: SSELTQDPAVSVALGQTVRITCPGGGIYAGRYYGYGWFQQKPGQAPVTVIYSNDKRPSDIPSRFSGSASGNTASLTITGAQAEDEADYYCGSHDSNVGVFGGGTKLTVL
notes: as for B5
- IC50 (human IL-12 [3]): 4.3 µg/mL

B8: HuDD2 VH T93A mutant (antibody, IgG1, name in Kabat numbering, V domains shown)
VH: EVQLVESGGGLVQPGGSLRLSCAASGFDFSNYQLQWVRQAPGKGLEWVGGIGSSGSSTYYGAAVKGRATISRDNAKNSVYLQMNSLRAEDTAVYYCARGVSPYSCWYAGRTSYTCHAYTAGSIDAWGQGTLVTVSS
VL: SSELTQDPAVSVALGQTVRITCPGGGIYAGRYYGYGWFQQKPGQAPVTVIYSNDKRPSDIPSRFSGSASGSTASLTITGAQAEDEADYYCGSHDSNVGVFGGGTKLTVL
notes: as for B5
- IC50 (human IL-12 [3]): 3.3 µg/mL

B9: HuDD2 Vλ T46L mutant (antibody, IgG1, V domains shown)
VH: EVQLVESGGGLVQPGGSLRLSCAASGFDFSNYQLQWVRQAPGKGLEWVGGIGSSGSSTYYGAAVKGRATISRDNAKNSVYLQMNSLRAEDTAVYYCTRGVSPYSCWYAGRTSYTCHAYTAGSIDAWGQGTLVTVSS
VL: SSELTQDPAVSVALGQTVRITCPGGGIYAGRYYGYGWFQQKPGQAPVLVIYSNDKRPSDIPSRFSGSASGSTASLTITGAQAEDEADYYCGSHDSNVGVFGGGTKLTVL
notes: as for B5
- fold reduction of binding affinity against wild-type HuDD2 (human IL-12 [5]): 4.6 fold
- IC50 (human IL-12 [3]): 16.1 µg/mL

B10: humanized B1 IgG1/λ monoclonal antibody (antibody, V domains shown)
VH: EVQLVESGGGLVQPGGSLRLSCAASGFTFSSYSMLWVRQAPGKGLEYVAEITNTGRTRRYGAAVKGRATISRDNAKNTVYLQMNSLRAEDTAVYYCARSSVYSCSYGWCAGNINAWGQGTLVTVSS
VL: SSELTQPPSVSVALGQTVRITCSGGYSGYYGWYQQKPGQAPVTVIYDNTRRPSDIPSRFSGSKSGSTATLTITGVQAEDEADYYCGTWDSSRVGIFGGGTKLTVL
notes: made in Sp2/0; also called HuB1
- fold decrease in relative binding against chimeric B1 (fold) (mouse IL-12 [6]): ~2.1 fold
- fold better affinity than chimeric B1 (mouse IL-12 [7]): ~2 fold
- fold better binding than chimeric B1 (human IL-12 [5]): ~1.4 fold
- IC50 (mouse IL-12 [1]): 6.2 µg/mL
- binding result (concanavalin A): no binding (tested: 0.01 µg/ml antibody)
- binding result (chicken lysozyme): no binding (tested: 0.01 µg/ml antibody)
- binding result (bovine albumin): no binding (tested: 0.01 µg/ml antibody)
- IC50 (human IL-12 [2]): 5.8 µg/mL
